Measurements from patent publication US20250339531A1, “DUX4 POLYPEPTIDES AND NUCLEIC ACIDS FOR TREATING INFLAMMATORY AND AUTOIMMUNE CONDITIONS” (Fred Hutchinson Cancer Center, priority 2021, published 2025).

Tested on: proteins that co-immunoprecipitated with DUX4-CTD constructs expressed in MB135 myoblasts
Assay: LC-MS of proteins co-immunoprecipitated with DUX4-CTD (Table 1) and western validation
Type: binding, human
Design: key to 4. mL1dL2 + Dox + IFNG / 4. + IFNG mix / 4. longCTD + Dox + IFNG / 3. + IFNg + Dox longCTD / 3. + Dox longCTD / 3. + IFNG longCTD: peptide-spectrum matches (PSMs) per protein
Conditions: kind of count not given; for 4. + IFNG mix: LC-MS value per protein co-immunoprecipitated from MB135 myoblasts, + IFNG mix sample (no Dox); for 4. mL1dL2 + Dox + IFNG: LC-MS value per protein co-immunoprecipitated with DUX4-CTD construct mL1dL2 in MB135 myoblasts
From the text: As an unbiased method to identify proteins that interact with the C-terminal region of DUX4, liquid chromatography mass spectroscopy (LC-MS) was used to identify proteins that co-immunoprecipitated with DUX4-CTD constructs expressed in MB135 myoblasts. In the first experiment, MB135iDUX4-CTD cells were used, either untreated, treated with doxycycline alone, or with both doxycycline and IFNG. In the second experiment, MB135iDUX4-CTD and MB135iDUX4mL1dL2 cells were used, both treated with doxycycline and IFNG, compared to these two cell lines untreated and combined as a control. Proteins with a minimum of 2 peptide spectrum matches (PSMs) in at least one sample that were identified in both experiments were assigned to one of ten categories (see Methods) to separate candidate interactors from other categories that might be co-purified because of obligate interactions (e.g., proteasome or ribosome) or might be less likely to be physiologically relevant (e.g., cytoskeletal proteins). Candidate interactors were then ranked based on the total PSMs for that protein across all samples.
Centrifugation at 2500 rcf at 4° C. for 5 min pelleted the nuclei, supernatant was discarded, and nuclei resuspended in 1 mL IP buffer pH 7.4 (25 mM Tris-HCl pH 7.5, 175 mM NaCl, 1 mM EDTA, 0.2% NP-40, 5% glycerol) and incubated for 1 hour at 4° C. with rotation then spun at 21000 rcf for 10 minutes at 4° C. to pellet insoluble debris. Protein concentration was determined using the Pierce BCA Protein Assay Kit (ThermoFisher, 23225). An equivalent amount of protein per sample was pre-cleared with Dynabeads Protein G (Invitrogen) bound to mouse IgG (Abcam #131368) for 1 hour at 4° C. with rotation. FLAG-tagged constructs were then immunoprecipitated with Dynabeads Protein G beads coupled to mouse anti-FLAG M2 mAb (Sigma F3165) for 3 hours at 4° C. with rotation. Beads were washed 3× with 1 mL IP buffer and eluted by adding 2× NuPage LDS Sample Buffer (Thermo Fisher, diluted from 4× with PBS) to the beads and heating for 10 minutes at 70° C.
For LC-MS, anti-FLAG immunoprecipitation was performed with beads cross-linked to the anti-FLAG antibody and the proteins competitively eluted with FLAG peptide. Eluted protein samples were electrophoresed into a NuPage 4-12% Bis-Tris gel, excised, and processed by the Fred Hutchinson Cancer Research Center Proteomics Core. Samples were reduced, alkylated, digested with trypsin, desalted, and run on the Orbitrap Eclipse Tribid Mass Spectrometer (Thermo Fisher). Proteomics data were analyzed using Proteome Discoverer 2.4 against a Uniprot human database that included common contaminants using Sequest HT and Percolator for scoring. […] Proteins that were identified in at least one sample from both independent experiments with at least 2 PSMs in one sample were assigned to one of ten categories: 1, candidates; 2, cytoskeletal associated; 3, cytoskeletal; 4, ribosome/translation associated; 5, proteasome associated; 6, membrane or extracellular; ER, golgi, or vesicle associated; 8, lipid metabolism; 9, chaperones; 10, nuclear import or nuclear membrane associated. The proteins in category 1 were further investigated for interactions with DUX4.

B1: CKAP4 (protein)
chain: MPSAKQRGSKGGHGAASPSEKGAHPSGGADDVAKKPPPAPQQPPPPPAPHPQQHPQQHPQNQAHGKGGHRGGGGGGGKSSSSSSASAAAAAAAASSSASCSRRLGRALNFLFYLALVAAAAFSGWCVHHVLEEVQQVRRSHQDFSRQREELGQGLQGVEQKVQSLQATFGTFESILRSSQHKQDLTEKAVKQGESEVSRISEVLQKLQNEILKDLSDGIHVVKDARERDFTSLENTVEERLTELTKSINDNIAIFTEVQKRSQKEINDMKAKVASLEESEGNKQDLKALKEAVKEIQTSAKSREWDMEALRSTLQTMESDIYTEVRELVSLKQEQQAFKEAADTERLALQALTEKLLRSEESVSRLPEEIRRLEEELRQLKSDSHGPKEDGGFRHSEAFEALQQKSQGLDSRLQHVEDGVLSMQVASARQTESLESLLSKSQEHEQRLAALQGRLEGLGSSEADQDGLASTVRSLGETQLVLYGDVEELKRSVGELPSTVESLQKVQEQVHTLLSQDQAQAARLPPQDFLDRLSSLDNLKASVSQVEADLKMLRTAVDSLVAYSVKIETNENNLESAKGLLDDLRNDLDRLFVKVEKIHEKV
- 4. + IFNG mix: 24
- 4. mL1dL2 + Dox + IFNG: 19

B2: ENDOD1 (protein)
chain: RLVGEEEAGFGECDKFFYAGTPPAGLAADSHVKICQRAEGAERFATLYSTRDRIPVYSAFRAPRPAPGGAEQRWLVEPQIDDPNSNLEEAINEAEAITSVNSLGSKQALNTDYLDSDYQRGQLYPFSLSSDVQVATFTLTNSAPMTQSFQERWYVNLHSLMDRALTPQCGSGEDLYILTGTVPSDYRVKDKVAVPEFVWLAACCAVPGGGWAMGFVKHTRDSDIIEDVMVKDLQKLLPFNPQLFQNNCGETEQDTEKMKKILEVVNQIQDEERMVQSQKSSSPLSSTRSKRSTLLPPEASEGSSSFLGKLMGFIATPFIKLFQLIYYLVVAILKNIVYFLWCVTKQVINGIESCLYRLGSATISYFMAIGEELVSIPWKVLKVVAKVIRALLRILCCLLKAICRVLSIPVRVLVDVATFPVYTMGAIPIVCKDIALGLGGTVSLLFDTAFGTLGGLFQVVFSVCKRIGYKVTFDNSGEL
- 4. + IFNG mix: 1
- 4. mL1dL2 + Dox + IFNG: 1

B3: IGF2BP2 (protein)
chain: MMNKLYIGNLSPAVTADDLRQLFGDRKLPLAGQVLLKSGYAFVDYPDQNWAIRAIETLSGKVELHGKIMEVDYSVSKKLRSRKIQIRNIPPHLQWEVLDGLLAQYGTVENVEQVFAFSLVNTDTETAVVNVTYATREEAKIAMEKLSGHQFENYSFKISYIPDEEVSSPSPPQRAQRGDHSSREQGHAPGGTSQARQIDFPLRILVPTQFVGAIIGKEGLTIKNITKQTQSRVDIHRKENSGAAEKPVTIHATPEGTSEACRMILEIMQKEADETKLAEEIPLKILAHNGLVGRLIGKEGRNLKKIEHETGTKITISSLQDLSIYNPERTITVKGTVEACASAEIEIMKKLREAFENDMLAVNQQANLIPGLNLSALGIFSTGLSVLSPPAGPRGAPPAAPYHPFTTHSGYFSSLYPHHQFGPFPHHHSYPEQEIVNLFIPTQAVGAIIGKKGAHIKQLARFAGASIKIAPAEGPDVSERMVIITGPPEAQFKAQGRIFGKLKEENFFNPKEEVKLEAHIRVPSSTAGRVIGKGGKTVNELQNLTSAEVIVPRDQTPDENEEVIVRIIGHFFASQTAQRKIREIVQQVKQQEQKYPQGVASQRSK
- 4. mL1dL2 + Dox + IFNG: 1

B4: USP11 (protein)
chain: MAVAPRLFGGLCFRFRDQNPEVAVEGRLPISHSCVGCRRERTAMATVAANPAAAAAAVAAAAAVTEDREPQHEELPGLDSQWRQIENGESGRERPLRAGESWFLVEKHWYKQWEAYVQGGDQDSSTFPGCINNATLFQDEINWRLKEGLVEGEDYVLLPAAAWHYLVSWYGLEHGQPPIERKVIELPNIQKVEVYPVELLLVRHNDLGKSHTVQFSHTDSIGLVLRTARERFLVEPQEDTRLWAKNSEGSLDRLYDTHITVLDAALETGQLIIMETRKKDGTWPSAQLHVMNNNMSEEDEDFKGQPGICGLTNLGNTCFMNSALQCLSNVPQLTEYFLNNCYLEELNFRNPLGMKGEIAEAYADLVKQAWSGHHRSIVPHVFKNKVGHFASQFLGYQQHDSQELLSFLLDGLHEDLNRVKKKEYVELCDAAGRPDQEVAQEAWQNHKRRNDSVIVDTFHGLFKSTLVCPDCGNVSVTFDPFCYLSVPLPISHKRVLEVFFIPMDPRRKPEQHRLVVPKKGKISDLCVALSKHTGISPERMMVADVFSHRFYKLYQLEEPLSSILDRDDIFVYEVSGRIEAIEGSREDIVVPVYLRERTPARDYNNSYYGLMLFGHPLLVSVPRDRFTWEGLYNVLMYRLSRYVTKPNSDDEDDGDEKEDDEEDKDDVPGPSTGGSLRDPEPEQAGPSSGVTNRCPFLLDNCLGTSQWPPRRRRKQLFTLQTVNSNGTSDRTTSPEEVHAQPYIAIDWEPEMKKRYYDEVEAEGYVKHDCVGYVMKKAPVRLQECIELFTTVETLEKENPWYCPSCKQHQLATKKLDLWMLPEILIIHLKRFSYTKFSREKLDTLVEFPIRDLDFSEFVIQPQNESNPELYKYDLIAVSNHYGGMRDGHYTTFACNKDSGQWHYFDDNSVSPVNENQIESKAAYVLFYQRQDVARRLLSPAGSSGAPASPACSSPPSSEFMDVN
- 4. mL1dL2 + Dox + IFNG: 1

B5: STAT1 (protein)
chain: SQWYELQQLDSKFLEQVHQLYDDSFPMEIRQYLAQWLEKQDWEHAANDVSFATIRFHDLLSQLDDQYSRFSLENNFLLQHNIRKSKRNLQDNFQEDPIQMSMIIYSCLKEERKILENAQRFNQAQSGNIQSTVMLDKQKELDSKVRNVKDKVMCIEHEIKSLEDLQDEYDFKCKTLQNREHETNGVAKSDQKQEQLLLKKMYLMLDNKRKEVVHKIIELLNVTELTQNALINDELVEWKRRQQSACIGGPPNACLDQLQNWFTIVAESLQQVRQQLKKLEELEQKYTYEHDPITKNKQVLWDRTFSLFQQLIQSSFVVERQPCMPTHPQRPLVLKTGVQFTVKLRLLVKLQELNYNLKVKVLFDKDVNERNTVKGFRKFNILGTHTKVMNMEESTNGSLAAEFRHLQLKEQKNAGTRTNEGPLIVTEELHSLSFETQLCQPGLVIDLETTSLPVVVISNVSQLPSGWASILWYNMLVAEPRNLSFFLTPPCARWAQLSEVLSWQFSSVTKRGLNVDQLNMLGEKLLGPNASPDGLIPWTRFCKENINDKNFPFWLWIESILELIKKHLLPLWNDGCIMGFISKERERALLKDQQPGTFLLRFSESSREGAITFTWVERSQNGGEPDFHAVEPYTKKELSAVTFPDIIRNYKVMAAENIPENPLKYLYPNIDKDHAFGKYYSRPKEAPEPMELDGPKGTGYIKTELISVSEVHPSRLQTTDNLLPMSPEEFDEVSRIVGSVEFDSMMNTV
- 4. + IFNG mix: 3
- 4. mL1dL2 + Dox + IFNG: 18

B6: SERPINB3 (protein)
chain: MNSLSEANTKFMFDLFQQFRKSKENNIFYSPISITSALGMVLLGAKDNTAQQIKKVLHFDQVTENTTGKAATYHVDRSGNVHHQFQKLLTEFNKSTDAYELKIANKLFGEKTYLFLQEYLDAIKKFYQTSVESVDFANAPEESRKKINSWVESQTNEKIKNLIPEGNIGSNTTLVLVNAIYFKGQWEKKFNKEDTKEEKFWPNKNTYKSIQMMRQYTSFHFASLEDVQAKVLEIPYKGKDLSMIVLLPNEIDGLQKLEEKLTAEKLMEWTSLQNMRETRVDLHLPRFKVEESYDLKDTLRTMGMVDIFNGDADLSGMTGSRGLVLSGVLHKAFVEVTEEGAEAAAATAVVGFGSSPTSTNEEFHCNHPFLFFIRQNKTNSILFYGRFSSP
- 4. + IFNG mix: 2
